The target in one assay is T1, human GIP receptor (human, UniProt P48546 22-466).
T1 sequence (looked up): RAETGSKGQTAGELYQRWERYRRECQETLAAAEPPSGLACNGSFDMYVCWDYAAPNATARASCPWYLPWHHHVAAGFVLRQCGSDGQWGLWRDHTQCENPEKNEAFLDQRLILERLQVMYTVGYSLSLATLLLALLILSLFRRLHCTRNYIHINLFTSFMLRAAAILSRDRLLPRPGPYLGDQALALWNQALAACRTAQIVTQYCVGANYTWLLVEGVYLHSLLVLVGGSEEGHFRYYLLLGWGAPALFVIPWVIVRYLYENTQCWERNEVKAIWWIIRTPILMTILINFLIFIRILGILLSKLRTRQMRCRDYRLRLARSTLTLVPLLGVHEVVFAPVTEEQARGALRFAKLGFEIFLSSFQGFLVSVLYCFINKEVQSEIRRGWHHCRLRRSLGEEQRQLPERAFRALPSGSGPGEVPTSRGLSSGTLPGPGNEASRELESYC
Nature of the assay: cell-based or functional assay.

The target of the next assay is human GLP-1 receptor (human, UniProt P43220 24-463). Nature of the assay: cell-based or functional assay.

Starred links: 1 amine or outer side, 2 acyl side, 3 side chain; linkers in the order of their positions; H or OH if unused. Groups on a side chain read outwards from the residue. No end group written: not given here. *: point of attachment. C18 diacid = O=C(O)CCCCCCCCCCCCCCCCC(=O)*; γGlu = O=C(O)[C@H](CCC(=O)[*:2])N[*:1]; εLys = N[C@@H](CCCCN[*:1])C(=O)[*:2]

B1: Compound No. 17 (peptide)
peptide: YAEGTFTSDYSIYLEK([εLys-εLys-γGlu-C18 diacid])QAAREFINWLLAGGPSSGAPPPS-OH
modifications: N-terminus assumed
SMILES: CC[C@H](C)[C@H](NC(=O)[C@H](Cc1ccccc1)NC(=O)[C@H](CCC(=O)O)NC(=O)[C@H](CCCNC(=N)N)NC(=O)[C@H](C)NC(=O)[C@H](C)NC(=O)[C@H](CCC(N)=O)NC(=O)[C@H](CCCCNC(=O)[C@@H](N)CCCCNC(=O)[C@@H](N)CCCCNC(=O)CC[C@H](NC(=O)CCCCCCCCCCCCCCCCC(=O)O)C(=O)O)NC(=O)[C@H](CCC(=O)O)NC(=O)[C@H](CC(C)C)NC(=O)[C@H](Cc1ccc(O)cc1)NC(=O)[C@@H](NC(=O)[C@H](CO)NC(=O)[C@H](Cc1ccc(O)cc1)NC(=O)[C@H](CC(=O)O)NC(=O)[C@H](CO)NC(=O)[C@@H](NC(=O)[C@H](Cc1ccccc1)NC(=O)[C@@H](NC(=O)CNC(=O)[C@H](CCC(=O)O)NC(=O)[C@H](C)NC(=O)[C@@H](N)Cc1ccc(O)cc1)[C@@H](C)O)[C@@H](C)O)[C@@H](C)CC)C(=O)N[C@@H](CC(N)=O)C(=O)N[C@@H](Cc1c[nH]c2ccccc12)C(=O)N[C@@H](CC(C)C)C(=O)N[C@@H](CC(C)C)C(=O)N[C@@H](C)C(=O)NCC(=O)NCC(=O)N1CCC[C@H]1C(=O)N[C@@H](CO)C(=O)N[C@@H](CO)C(=O)NCC(=O)N[C@@H](C)C(=O)N1CCC[C@H]1C(=O)N1CCC[C@H]1C(=O)N1CCC[C@H]1C(=O)N[C@@H](CO)C(=O)O
With B1, in the assay with human GIP receptor, the “hGIPR, CRE Luc 0% HSA EC50 (pM)” value was 34.9 pM and the “hGIPR, CRE Luc 1% HSA EC50 (pM)” value is 1320 pM. For the same molecule, in the assay with human GLP-1 receptor, the “hGLP-1R, CRE Luc 0% HSA EC50 (pM)” value is 5.2 pM and the “hGLP-1R, CRE Luc 1% HSA EC50 (pM)” value amounted to 257 pM.

The values are drawn from patent publication US20230272029A1, “CO-AGONISTS AT GLP-1 AND GIP RECEPTORS SUITABLE FOR ORAL DELIVERY” (Novo Nordisk A/S, priority 2020, published 2023).
